Source: article PMC6424596 (Current biology : CB, 2019)

Biological target: T1, Cdr2-flag (S. pombe, UniProt P87050 1-775)
T1 sequence (looked up): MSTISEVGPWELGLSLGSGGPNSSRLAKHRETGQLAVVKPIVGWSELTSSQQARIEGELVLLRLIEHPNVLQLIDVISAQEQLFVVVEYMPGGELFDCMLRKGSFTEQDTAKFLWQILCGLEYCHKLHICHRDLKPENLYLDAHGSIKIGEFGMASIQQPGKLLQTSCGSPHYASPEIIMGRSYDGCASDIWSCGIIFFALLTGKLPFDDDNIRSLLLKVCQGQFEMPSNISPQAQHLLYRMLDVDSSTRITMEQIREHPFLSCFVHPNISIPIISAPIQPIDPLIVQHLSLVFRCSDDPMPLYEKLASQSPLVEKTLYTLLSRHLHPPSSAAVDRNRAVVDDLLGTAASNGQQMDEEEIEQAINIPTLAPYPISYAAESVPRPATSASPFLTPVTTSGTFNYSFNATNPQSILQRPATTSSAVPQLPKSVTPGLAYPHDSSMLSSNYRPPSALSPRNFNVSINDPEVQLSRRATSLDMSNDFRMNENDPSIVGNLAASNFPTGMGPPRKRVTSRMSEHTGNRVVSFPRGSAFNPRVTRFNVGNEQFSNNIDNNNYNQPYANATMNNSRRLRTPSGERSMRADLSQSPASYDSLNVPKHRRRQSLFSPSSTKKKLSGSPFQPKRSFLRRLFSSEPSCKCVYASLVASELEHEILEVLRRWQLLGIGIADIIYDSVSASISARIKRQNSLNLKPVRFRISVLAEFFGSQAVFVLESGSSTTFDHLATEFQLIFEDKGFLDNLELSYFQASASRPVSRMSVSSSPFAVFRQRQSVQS
Test: co-IP

B1: Mid1–9A-myc13 (natural protein, S. pombe, UniProt P78953 1-920, looked up)
chain: MKEQEFSYREAKDVSLDSKGLENSFLSSPNREKTPLFFEGNSNETSGYDQTKNFTHGDGDMSLGNLSELNVATDLLESLDLRSMYMHGYGHLDSSFSSQHSPDNRKRMSATSVFKRINSEEEGRIPALTYSAGTMNSTSSSTASLKGADIVADYETFNPDQNLAELSFDRSKSSRKRAVEVAEFSRAKTMSPLEYTVQHPYQSHNELSTNPARARAGAVPNLARIPADVKPVPPAHLSASSTVGPRILPSLPKDTTEDNPALERVETTASLDMDYKPLEPLAPIQEAPVEDTSEPFSSVPEATLDDSDISTESLRKKVLAKMEAKRISAGSSYASTLRKVYDFSELSLPTNGKDYDELYLQSSRNSEPEISTIINDSLQQENMDEDISATSIPKSQAAYGHGSVTYHEVPRYNLTSASVGYSISSQRGRIKASSTIDNLSAILSSEDLRHPAMQPVPGTKRTYANYCENEPNKSSQSLVSSESHNVEGWNYSETGTVGFYDPSAEISASIDELRQSTPVARDSELLSRAHAFDLNRLDLPSQDKSTSYEVPNGTENQSPRPVTSLGFVNETFFEEKPKAPLPLGRFYIHLNSILNISISEVHSPIKIIVNTPTQNMQLPWQAVNGNNRLDHDFAFHVDDNFKVSFMFLDIPIEDKSNGSKGVSATKDVSNGKPAETKSKARKFFDKLFNRRKKRKLNKAAAVENSKAKKSVVIKKVSGTATLNLGNVKDSCFGKAFNVEIPIISRGFLEAIPVKINSIGKRTLGNLTLTCLYIPELSVPEQELPFTLEQATMDLRHVRSNYLYNEGYLYRLEDSSIRRRFVVLRSKQLNFYAEKGGQYLDTFQLSKTVVSIPMVNFSEAVSNLGLVAGILATSVDRRHVQLFADSKKVCQKWLQVMNSRSFALDRGTEKLWLQEYVNFMA
fold co-immunoprecipitated against Mid1-myc13: ~2 fold
